The source of these data is patent US20220144956A1 (published 2022).

Residue numbers refer to the chain shown, from its start.

B1: H1 L1.44 XENP34607 (antibody, V domains shown)
VH: QLQVQESGPGLVKPSETLSLTCTVSGGSISNSYFSWGWIRQPPGKGLEWIGSFYYGEKTYYNPSLKSRATISIDTSKSQFSLKLSSVTAADTAVYYCPRGPTMIRGVIDSWGQGTLVTVSS
VL: EIVLTQSPATLSLSPGERATLSCRASQSVRSYLAWYQQKPGQAPRLLIYDASNRATGIPARFSGSGSGTDFTLTISSLEPEDFAVYYCQQRTNWPPTFGQGTKVEIK
B2: H1 L1.16 XENP34579 (antibody, V domains shown)
VH: B1 VH
VL: B1 VL with A34S, T92S
B3: H1 L1.11 XENP34574 (antibody, V domains shown)
VH: B1 VH
VL: B1 VL with S31N, T92S
B4: H1 L1.17 XENP34580 (antibody, V domains shown)
VH: B1 VH
VL: B1 VL with A34T, T92S
B5: H1 L1.41 XENP34604 (antibody, V domains shown)
VH: B1 VH
VL: B1 VL with T92A
B6: H1 L1.25 XENP34588 (antibody, V domains shown)
VH: B1 VH
VL: B1 VL with N53T, T92S
B7: H1 L1.39 XENP34602 (antibody, V domains shown)
VH: B1 VH
VL: B1 VL with R91Q, T92S
B8: H1 L1.26 XENP34589 (antibody, V domains shown)
VH: B1 VH
VL: B1 VL with T56S, T92S
B9: H1 L1.14 XENP34577 (antibody, V domains shown)
VH: B1 VH
VL: B1 VL with Y32N, T92S
B10: H1 L1.21 XENP34584 (antibody, V domains shown)
VH: B1 VH
VL: B1 VL with D50G, T92S
B11: H1 L1.15 XENP34578 (antibody, V domains shown)
VH: B1 VH
VL: B1 VL with A34N, T92S
B12: H1 L1.8 XENP34571 (antibody, V domains shown)
VH: B1 VH
VL: B1 VL with R30K, T92S
B13: H1 L1.28 XENP34591 (antibody, V domains shown)
VH: B1 VH
VL: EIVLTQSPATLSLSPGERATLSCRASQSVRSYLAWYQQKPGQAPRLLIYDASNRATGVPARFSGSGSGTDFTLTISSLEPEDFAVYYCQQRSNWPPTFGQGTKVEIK
B14: H1 L1.10 XENP34573 (antibody, V domains shown)
VH: B1 VH
VL: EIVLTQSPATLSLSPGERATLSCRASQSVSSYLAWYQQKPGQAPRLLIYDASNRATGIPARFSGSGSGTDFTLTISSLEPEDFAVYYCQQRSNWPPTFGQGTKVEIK
B15: H1 L1.32 XENP34595 (antibody, V domains shown)
VH: B1 VH
VL: B1 VL with E79Q, T92S
B16: H1 L1.18 XENP34581 (antibody, V domains shown)
VH: B1 VH
VL: B1 VL with Q42K, T92S
B17: H1 L1.13 XENP34576 (antibody, V domains shown)
VH: B1 VH
VL: B1 VL with Y32H, T92S

human TGFßRII (antigen of the Octet experiments), sequence (P37173 23-166): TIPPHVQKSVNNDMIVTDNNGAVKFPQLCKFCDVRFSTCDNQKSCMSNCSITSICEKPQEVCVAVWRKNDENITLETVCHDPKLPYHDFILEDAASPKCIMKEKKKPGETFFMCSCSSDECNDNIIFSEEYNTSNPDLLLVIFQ

The experiment concerns the target human TGFßRII (antigen of the Octet experiments) (human, UniProt P37173 23-166). Put plainly: BLI (Octet). A general note: BLI is a label-free optical method that tracks binding on a fibre tip over time.
As for B1, the Kd (as a rule, the free concentration of one partner at which half of the binding sites on the other are occupied at equilibrium, for simple one-to-one binding) came to 2.03 nM.

Molecule B2 came in with a Kd of 0.464 nM.

B3 registered a Kd of 0.597 nM.

The molecule B4 gave a Kd of 0.622 nM.

Take B5: the Kd amounted to 2.49 nM. This Kd lies about 4-fold higher than the previous one.

B6 came in with a Kd of 0.921 nM.

B7: the Kd worked out at 21 nM.

B8: binding was put at a Kd of 0.99 nM. Against the preceding molecule, the Kd is about 21-fold lower.

As for B9, binding was put at a Kd of 1.26 nM.

Take B10: the dissociation constant Kd came out at 0.429 nM.

As for B11, binding was put at a Kd of 2.48 nM. This Kd lies about 5.8-fold higher than the previous one.

B12 gave a Kd of 1.11 nM.

B13: the Kd amounted to 0.891 nM.

Consider B14, for which the Kd was found to be 10.7 nM.

B15 yielded a Kd of 1 nM. Compared with the last molecule, the Kd is about 11-fold lower.

Consider B16, for which binding was put at a Kd of 0.831 nM.

Take B17: the equilibrium dissociation constant (Kd) was 1.19 nM. This Kd and that of the molecule before are within 1.5-fold of each other.
